Measurements reported in US20230158141A1 (YAFEI SHANGHAI BIOLOG MEDICINE SCIENCE AND TECHNOLOGY, published 2023).

T1: IL-10R1-Fc (UniProt Q13651 22-235, limits assumed)
T1 sequence (looked up): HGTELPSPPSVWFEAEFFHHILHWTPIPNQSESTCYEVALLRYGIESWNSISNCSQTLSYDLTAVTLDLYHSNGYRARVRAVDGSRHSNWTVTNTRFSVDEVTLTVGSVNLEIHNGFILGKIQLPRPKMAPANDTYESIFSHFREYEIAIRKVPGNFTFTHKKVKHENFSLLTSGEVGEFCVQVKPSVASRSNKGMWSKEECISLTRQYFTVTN


Biological target: T1, IL-10R1-Fc
Assay: ELISA, IL-10R1-Fc coated

Binder | Binding recovery (>60%) [%] | Decreased fold of binding to ligand after Conjugating with S48 [fold]
IL-10 Phe111Cys-R4-8 (ligand, human, UniProt P22301 19-178, looked up, R4-8 on Cys 111, mature) SPGQGTQSENSCTHFPGNLPNMLRDLRDAFSRVKTFFQMKDQLDNLLLKESLLEDFKGYLGCQALSEMIQFYLEEVMPQAENQDPDIKAHVNSLGENLKTLRLRLRRCHRCLPCENKSKAVEQVKNAFNKLQEKGIYKAMSEFDIFINYIEAYMTMKIRN | 90.1 | 
IL-10 Ser8Cys-R4-5 (ligand, human, UniProt P22301 19-178, looked up, R4-5 on Cys 8, mature) SPGQGTQCENSCTHFPGNLPNMLRDLRDAFSRVKTFFQMKDQLDNLLLKESLLEDFKGYLGCQALSEMIQFYLEEVMPQAENQDPDIKAHVNSLGENLKTLRLRLRRCHRFLPCENKSKAVEQVKNAFNKLQEKGIYKAMSEFDIFINYIEAYMTMKIRN | 100 | 
IL-10 Thr13Cys-R4-6 (ligand, human, UniProt P22301 19-178, looked up, R4-6 on Cys 13, mature) SPGQGTQSENSCCHFPGNLPNMLRDLRDAFSRVKTFFQMKDQLDNLLLKESLLEDFKGYLGCQALSEMIQFYLEEVMPQAENQDPDIKAHVNSLGENLKTLRLRLRRCHRFLPCENKSKAVEQVKNAFNKLQEKGIYKAMSEFDIFINYIEAYMTMKIRN | 99.1 | 
IL-10 Thr35Cys-R4-6 (ligand, human, UniProt P22301 19-178, looked up, R4-6 on Cys 35, mature) SPGQGTQSENSCTHFPGNLPNMLRDLRDAFSRVKCFFQMKDQLDNLLLKESLLEDFKGYLGCQALSEMIQFYLEEVMPQAENQDPDIKAHVNSLGENLKTLRLRLRRCHRFLPCENKSKAVEQVKNAFNKLQEKGIYKAMSEFDIFINYIEAYMTMKIRN | 90.1 | 
IL-10 Ser118Cys-S48 (ligand, human, UniProt P22301 19-178, looked up, S48 on Cys 118, mature) SPGQGTQSENSCTHFPGNLPNMLRDLRDAFSRVKTFFQMKDQLDNLLLKESLLEDFKGYLGCQALSEMIQFYLEEVMPQAENQDPDIKAHVNSLGENLKTLRLRLRRCHRFLPCENKCKAVEQVKNAFNKLQEKGIYKAMSEFDIFINYIEAYMTMKIRN |  | 3
IL-10 Ser141Cys-R4-7 (ligand, human, UniProt P22301 19-178, looked up, R4-7 on Cys 141, mature) SPGQGTQSENSCTHFPGNLPNMLRDLRDAFSRVKTFFQMKDQLDNLLLKESLLEDFKGYLGCQALSEMIQFYLEEVMPQAENQDPDIKAHVNSLGENLKTLRLRLRRCHRFLPCENKSKAVEQVKNAFNKLQEKGIYKAMCEFDIFINYIEAYMTMKIRN | 112 | 
IL-10 Ser141Cys-S48 (ligand, human, UniProt P22301 19-178, looked up, S48 on Cys 141, mature) SPGQGTQSENSCTHFPGNLPNMLRDLRDAFSRVKTFFQMKDQLDNLLLKESLLEDFKGYLGCQALSEMIQFYLEEVMPQAENQDPDIKAHVNSLGENLKTLRLRLRRCHRFLPCENKSKAVEQVKNAFNKLQEKGIYKAMCEFDIFINYIEAYMTMKIRN |  | 19
IL-10 Thr13Cys-S48 (ligand, human, UniProt P22301 19-178, looked up, S48 on Cys 13, mature) SPGQGTQSENSCCHFPGNLPNMLRDLRDAFSRVKTFFQMKDQLDNLLLKESLLEDFKGYLGCQALSEMIQFYLEEVMPQAENQDPDIKAHVNSLGENLKTLRLRLRRCHRFLPCENKSKAVEQVKNAFNKLQEKGIYKAMSEFDIFINYIEAYMTMKIRN |  | 7
IL-10 Ser11Cys-R4-7 (ligand, human, UniProt P22301 19-178, looked up, R4-7 on Cys 11, mature) SPGQGTQSENCCTHFPGNLPNMLRDLRDAFSRVKTFFQMKDQLDNLLLKESLLEDFKGYLGCQALSEMIQFYLEEVMPQAENQDPDIKAHVNSLGENLKTLRLRLRRCHRFLPCENKSKAVEQVKNAFNKLQEKGIYKAMSEFDIFINYIEAYMTMKIRN | 133 | 
IL-10 Phe143Cys-S48 (ligand, human, UniProt P22301 19-178, looked up, S48 on Cys 143, mature) SPGQGTQSENSCTHFPGNLPNMLRDLRDAFSRVKTFFQMKDQLDNLLLKESLLEDFKGYLGCQALSEMIQFYLEEVMPQAENQDPDIKAHVNSLGENLKTLRLRLRRCHRFLPCENKSKAVEQVKNAFNKLQEKGIYKAMSECDIFINYIEAYMTMKIRN |  | 7
IL-10 Tyr72Cys-S48 (ligand, human, UniProt P22301 19-178, looked up, S48 on Cys 72, mature) SPGQGTQSENSCTHFPGNLPNMLRDLRDAFSRVKTFFQMKDQLDNLLLKESLLEDFKGYLGCQALSEMIQFCLEEVMPQAENQDPDIKAHVNSLGENLKTLRLRLRRCHRFLPCENKSKAVEQVKNAFNKLQEKGIYKAMSEFDIFINYIEAYMTMKIRN |  | 3
IL-10 Ser118Cys-R4-5 (ligand, human, UniProt P22301 19-178, looked up, R4-5 on Cys 118, mature) SPGQGTQSENSCTHFPGNLPNMLRDLRDAFSRVKTFFQMKDQLDNLLLKESLLEDFKGYLGCQALSEMIQFYLEEVMPQAENQDPDIKAHVNSLGENLKTLRLRLRRCHRFLPCENKCKAVEQVKNAFNKLQEKGIYKAMSEFDIFINYIEAYMTMKIRN | 100 | 
IL-10 Ser51Cys-R4-7 (ligand, human, UniProt P22301 19-178, looked up, R4-7 on Cys 51, mature) SPGQGTQSENSCTHFPGNLPNMLRDLRDAFSRVKTFFQMKDQLDNLLLKECLLEDFKGYLGCQALSEMIQFYLEEVMPQAENQDPDIKAHVNSLGENLKTLRLRLRRCHRFLPCENKSKAVEQVKNAFNKLQEKGIYKAMSEFDIFINYIEAYMTMKIRN | 96.7 | 
IL-10 Ser93Cys-R4-2 (ligand, human, UniProt P22301 19-178, looked up, R4-2 on Cys 93, mature; the row prints S in one column and Asp in the next) SPGQGTQSENSCTHFPGNLPNMLRDLRDAFSRVKTFFQMKDQLDNLLLKESLLEDFKGYLGCQALSEMIQFYLEEVMPQAENQDPDIKAHVNCLGENLKTLRLRLRRCHRFLPCENKSKAVEQVKNAFNKLQEKGIYKAMSEFDIFINYIEAYMTMKIRN | 100 | 
IL-10 Ser8Cys-S48 (ligand, human, UniProt P22301 19-178, looked up, S48 on Cys 8, mature) SPGQGTQCENSCTHFPGNLPNMLRDLRDAFSRVKTFFQMKDQLDNLLLKESLLEDFKGYLGCQALSEMIQFYLEEVMPQAENQDPDIKAHVNSLGENLKTLRLRLRRCHRFLPCENKSKAVEQVKNAFNKLQEKGIYKAMSEFDIFINYIEAYMTMKIRN |  | 3
IL-10 Phe111Cys-S48 (ligand, human, UniProt P22301 19-178, looked up, S48 on Cys 111, mature) SPGQGTQSENSCTHFPGNLPNMLRDLRDAFSRVKTFFQMKDQLDNLLLKESLLEDFKGYLGCQALSEMIQFYLEEVMPQAENQDPDIKAHVNSLGENLKTLRLRLRRCHRCLPCENKSKAVEQVKNAFNKLQEKGIYKAMSEFDIFINYIEAYMTMKIRN |  | 12
IL-10 Ser93Cys-S48 (ligand, human, UniProt P22301 19-178, looked up, S48 on Cys 93, mature; the row prints S in one column and Asp in the next) SPGQGTQSENSCTHFPGNLPNMLRDLRDAFSRVKTFFQMKDQLDNLLLKESLLEDFKGYLGCQALSEMIQFYLEEVMPQAENQDPDIKAHVNCLGENLKTLRLRLRRCHRFLPCENKSKAVEQVKNAFNKLQEKGIYKAMSEFDIFINYIEAYMTMKIRN |  | 3
IL-10 Thr155Cys-R4-7 (ligand, human, UniProt P22301 19-178, looked up, R4-7 on Cys 155, mature) SPGQGTQSENSCTHFPGNLPNMLRDLRDAFSRVKTFFQMKDQLDNLLLKESLLEDFKGYLGCQALSEMIQFYLEEVMPQAENQDPDIKAHVNSLGENLKTLRLRLRRCHRFLPCENKSKAVEQVKNAFNKLQEKGIYKAMSEFDIFINYIEAYMCMKIRN | 98.1 | 
IL-10 Ser11Cys-S48 (ligand, human, UniProt P22301 19-178, looked up, S48 on Cys 11, mature) SPGQGTQSENCCTHFPGNLPNMLRDLRDAFSRVKTFFQMKDQLDNLLLKESLLEDFKGYLGCQALSEMIQFYLEEVMPQAENQDPDIKAHVNSLGENLKTLRLRLRRCHRFLPCENKSKAVEQVKNAFNKLQEKGIYKAMSEFDIFINYIEAYMTMKIRN |  | 9
IL-10 Tyr137Cys-S48 (ligand, human, UniProt P22301 19-178, looked up, S48 on Cys 137, mature) SPGQGTQSENSCTHFPGNLPNMLRDLRDAFSRVKTFFQMKDQLDNLLLKESLLEDFKGYLGCQALSEMIQFYLEEVMPQAENQDPDIKAHVNSLGENLKTLRLRLRRCHRFLPCENKSKAVEQVKNAFNKLQEKGICKAMSEFDIFINYIEAYMTMKIRN |  | 5
IL-10 Tyr137Cys-R4-4 (ligand, human, UniProt P22301 19-178, looked up, R4-4 on Cys 137, mature) SPGQGTQSENSCTHFPGNLPNMLRDLRDAFSRVKTFFQMKDQLDNLLLKESLLEDFKGYLGCQALSEMIQFYLEEVMPQAENQDPDIKAHVNSLGENLKTLRLRLRRCHRFLPCENKSKAVEQVKNAFNKLQEKGICKAMSEFDIFINYIEAYMTMKIRN | 99.1 | 
IL-10 Tyr149Cys-R4-4 (ligand, human, UniProt P22301 19-178, looked up, R4-4 on Cys 149, mature) SPGQGTQSENSCTHFPGNLPNMLRDLRDAFSRVKTFFQMKDQLDNLLLKESLLEDFKGYLGCQALSEMIQFYLEEVMPQAENQDPDIKAHVNSLGENLKTLRLRLRRCHRFLPCENKSKAVEQVKNAFNKLQEKGIYKAMSEFDIFINCIEAYMTMKIRN | 115 | 
IL-10 Thr155Cys-S48 (ligand, human, UniProt P22301 19-178, looked up, S48 on Cys 155, mature) SPGQGTQSENSCTHFPGNLPNMLRDLRDAFSRVKTFFQMKDQLDNLLLKESLLEDFKGYLGCQALSEMIQFYLEEVMPQAENQDPDIKAHVNSLGENLKTLRLRLRRCHRFLPCENKSKAVEQVKNAFNKLQEKGIYKAMSEFDIFINYIEAYMCMKIRN |  | 3
IL-10 Tyr72Cys-R4-4 (ligand, human, UniProt P22301 19-178, looked up, R4-4 on Cys 72, mature) SPGQGTQSENSCTHFPGNLPNMLRDLRDAFSRVKTFFQMKDQLDNLLLKESLLEDFKGYLGCQALSEMIQFCLEEVMPQAENQDPDIKAHVNSLGENLKTLRLRLRRCHRFLPCENKSKAVEQVKNAFNKLQEKGIYKAMSEFDIFINYIEAYMTMKIRN | 109 | 
IL-10 Phe143Cys-R4-8 (ligand, human, UniProt P22301 19-178, looked up, R4-8 on Cys 143, mature) SPGQGTQSENSCTHFPGNLPNMLRDLRDAFSRVKTFFQMKDQLDNLLLKESLLEDFKGYLGCQALSEMIQFYLEEVMPQAENQDPDIKAHVNSLGENLKTLRLRLRRCHRFLPCENKSKAVEQVKNAFNKLQEKGIYKAMSECDIFINYIEAYMTMKIRN | 69 | 
IL-10 Ser51Cys-S48 (ligand, human, UniProt P22301 19-178, looked up, S48 on Cys 51, mature) SPGQGTQSENSCTHFPGNLPNMLRDLRDAFSRVKTFFQMKDQLDNLLLKECLLEDFKGYLGCQALSEMIQFYLEEVMPQAENQDPDIKAHVNSLGENLKTLRLRLRRCHRFLPCENKSKAVEQVKNAFNKLQEKGIYKAMSEFDIFINYIEAYMTMKIRN |  | 3
